Measured values: paper PMC2883074 (Molecular Microbiology, 2010)
Read-outs that look alike come from different tables or passages of the source.

B1: full-length Helicobacter pylori MinE (natural protein, UniProt O25099 1-77, looked up)
chain: MSLFDFFKNKGSAATATDRLKLILAKERTLNLPYMEEMRKEIIAVIQKYTKSSDIHFKTLDSNQSVETIEVEIILPR
B2: Selenomethionine (Se-Met)-labelled HpMinE (natural protein, Helicobacter pylori, UniProt O25099 1-77, looked up)
chain: B1 chain
modifications: selenomethionine (Se-Met-labelled)
B3: EcMinEΔN (residues 32-88 of EcMinE) (domain or fragment, E. coli, UniProt P0A734 32-88, looked up)
chain: SDAEPHYLPQLRKDILEVICKYVQIDPEMVTVQLEQKDGDISILELNVTLPEAEELK
B4: HpMinEΔN (residues 29-77 of HpMinE) (domain or fragment, Helicobacter pylori, UniProt O25099 29-77, looked up)
chain: TLNLPYMEEMRKEIIAVIQKYTKSSDIHFKTLDSNQSVETIEVEIILPR

Experiments:
SEC [1] = target: the molecule itself; assay: SEC
crystal structure = target: the molecule itself; assay: crystal structure
SEC [2] = target: the molecule itself; assay: SEC; remark: listed apart in the source

Protein | stoichiometry N (SEC [2]) | also measured
B1 |  | stoichiometry N (SEC [1]): 2
B2 |  | binding result (crystal structure): binds
B3 | 4 | 
B4 | 3 | 
